Test results from PMC3077074.

Biological target: Helicobacter hepaticus Group III 2/2 hemoglobin (Hh Hb), wild type (Helicobacter hepaticus ATCC51449)
Assay: NMR 15N relaxation

For “Helicobacter hepaticus Group III 2/2 hemoglobin (Hh Hb), wild type (natural protein)”, the stoichiometry N was over 2.
